Experiment: soluble on expression in E. coli; label from the status in PepcDB or PDB records

Sequence | soluble on expression in E. coli
MSLRHVIREVRADLIASPVQTGFQDATRKVETVGMCVIRVNTDQGLTGIGVTYHEVGGEAIKEMIERYYGPKLIGRDPFETEEIWEELFHYARGVGRKGLSFCALSAVDIALWDLKGKIMDLPLYRLLGGNKKKVPVYASGGWTSYDDDALVAEALEMVRRGYKMIKLKVGVEGGRNIRRDTQRCRKVREAIGPDIGFMVDANNAFHSGDAVRLANEIREYDILFFEEPVFADDIPGLRRFRQGTDIPLGTGEHEYTRYGARDLILGEAVDYLQMDVTRCGGITEMLKVIALSQAWNLAFAPHAMEHIHMHLVSAAANGAFLERLFLFEDITAMVFKDAPVPEEGILTIPDKPGLGLELNSEFLREGHHHHHH | soluble
MSLRHVRERGVLVATLQRLAEQDPLTGIANRQGFQALLNARLAENEGRGVALGHLDLDNFRHVNDALGHQSGDRLILQVVARLKHQLEAGDQLARLGSDEFALLIDTRRDANRAEWIAERIVEALAEPYWIDGESLLLGCSLGIAHARAQSGADPLMWHAHIAMRQAKGSQGCTFHVFNERINRNARSLADLESELRRALRRDELELHYQPRLNLADGRIVGLEALVRWRHAERGLLPPSEFVPLAEQSGLIVPLGYWVISRALRDMQALCERGLEPLHMAVNLSFRQFQDSQLLATLSRLILEHGVDARWLEFELTETAVMRRNEVVRQTMDALGRLGVRFSLDDFGTGFSSFVHLNSLPITLLKVDRSFVAEMEMREENRKLVHAMINLAHNLNLEVVAEGVESEEQLTLLRGFGCDQVQGFLVSRPLPIGELMAYLLQAPGRQLEGEGHHHHHH | soluble
MSLRLEGVVVPLITPFLEDYSIDKEGLKWLVSYLSENGVNGIFVNSSVGEFASLTLDEMKLVTKIALDSRKSYSTLIFAGASTNFTEETIKLAKDFKDMGVDAIVVMAPYFFKVREKELLDHFSMIAEKVDLPIIIYNIPLFTGIDIPISVYKMLVSQHSNIIGTKVTLDSLIFFKKLISEIREIRKDFSILTGFDEYLLPLLYMGGNGGVMGLANAIPKLHLKVYESWKNGNLSDANKYWRNVLNLTDIYDYCNSYTASIKLLLKVLNMPIKNVVRPPLSICEEESKIRGMIKDLSSFLTNSEGHHHHHH | soluble
MSLRLHFHTQEMPMPALLYKADPARAERWRVLFAEHAPDIEWRVWPDIGDPADIHYLGAWLAPDDLQDLLPNLKVLFALSAGVDQLDLSRIPKSLPVVRLLDPGISHGMCEYASFAVLSLHREMLRYRQQQVEGLWKAQPLIPANKRRVGVMGLGLQAQHILSSLKPFGFQLSGWARSAHQVEGVTCYAGEEQLSEFLGQCDILLCVLPLTAQTEGILNRQLFERLPEGAALINMGRGGHLVEADLLEALDSGQLSAAVLDVLQQEPAPADHPFWQHPKILLTPHVAAMTQPESAFPGLLDNIRRFERGEAMQGQVNRGEGHHHHHH | soluble
MSLRMIGKVLELLNCKETEREINRRKFSICDDVNFILNLPIGYLKDVISPLENYLSKHMTNNFSRLTRVVPNDYEDTQLHFSKFFLNLYSSAISEIPRFNILTSLVILDEYRMMPDKALIAAADELARNGINAIFSTSTPSVFFEEEIVSRFRNRRVVSISIVNEYGQAVEGRDCVKKGEGYYQCRGSYEVIELIEDFDIRDLDYEIIKGEEVFKVKEPFTLFVNSWEKALRLYRKLREERNTEVCLLNSSDECKVTITPKIMPTRFNVVSEISSLPTIVARSGIINDKDKIYVWIDRDNYDTVTESTLNLLSNIKVCLKHPFGCNGKMGYANKTVLKPNIDERLIKRLSEISHLMDRREFEKVTEVFSDFVTVDLFTDKEKITTVPPEFVYENKKKILYYGNSCVYTYFTDGEKCSKIVYNWLEGGGVSWLKRNLARAYKNYVEEEGKKKVFLGLKARDVEEWIEGHHHHHH | not soluble
MSLRNKIKSWLLNASEYDFTDIKEGIRLHLNESPFEPPQFIIDAVKMYLSKGNRYQHPDLLEKYRELAAEYSKVEPENIYPSVGADGSIRAIFYNLVEPGDTILTNYPSYSMYSVYSSVRGTKVIKVNLKEDNEWWKENTDDLLAQAEKVELVIIDDPNNPTGSPMLNGKKELIGQLAENTKGFVVIDEAYYEFGGYTVSPYIYDYPNVLVVRTLSKAFSLASYRLGYTIANEEIVKALMKSSTPFDIPLPSLIAGITALENPSYIKDVVNIVNRNREILYQGLKNLNLKVYKSITNFLLIKDNRNLQEMLMRHGIAIRKLYDNFYRITIGTEDQCKMVIDKLGEELENSNSEGHHHHHH | soluble
MSLRPKMADIARMAGVDISTVSRALAGSPRVTKETRALIDQIVRDTGYVLNEAARNLRDGRANQVLVIVSDIAAPFYSDVVQGIVETLAERGINVLLGVTLRQAKREAKLGKQLLTGVVDGIITVTGSVPKPILNMQGFDRKVVAISRPVPHEGVTCVTIDNYAAAKEVMAHLYAMGHRRIVHIGGPNHSETYRDRSAAYVDFMRDHGLVELTNVRSTDSFNDDAESGFEIMKSMLNDGSRPTAVFCATDELAISAMAAARQANRNIPGDVSFFGFDDLKLAGLMHPPLSTVSVPRFEMGRRGAEELFRQIYKGEMPSTKIVLEHRLVLRDSVAKEGHHHHHH | not soluble
MSLRPTEYIDLHCHLLPGLDDGPQQLAQAVEMARQAVADGIHYVLATPHHLDRRYQNTGLVVERSVAELQAELKRQQIPLTVFAGQEVHLRDDLATALPHLLGIDVGRRYLLLELPHEQVPNYVAQVIFELLQQGTTPVIAHPERNAQIMAQPERLYDLVQQGCLAQLTAGSLVGQFGRAVKSTALELVECGLVQVIASDAHLMARRGFMMRAGYQALARLDSTNPASFAVNARLLLNGDPVVLGEVLRPNQRRKFWLFEGHHHHHH | not soluble
MSLRRILHMTEKKKKIGFNIVKNDSTDGHGGFGVGALSLENISPVFVDVLEKTAFVDIGAMHARSTVEKGIKFLTNKDEVPNGKPFWLVWVTIERTATGAYYAGVTACEMTVDREIRRGYKSLPEHVNKMDKSMKRHIMVDHMDESSKKVLGTFLKEHNEAIWNESGEELRRALLSEEGHHHHHH | soluble
MSLRRILITGANGFVGQILCSMLRQAGHHVIALVGAESALSSHADESVRCDIRDASGLEQALCRAAPTHVVHLAAITHVPTSFNNPVLTWQTNVMGSVNLLQALQRSAPEAFVLFVSSSEVYGETFKQGTALGEDSACKPMNPYAASKLAAEAAFNEYFRQGRKGIVVRPFNHIGARQSPDFATASFARQIALIEAGKQAPQLKVGNLQAARDFLDVHDVCDAYVALLQLADEQERYPGCLNICRGEPTSLQTLLTQLMALSSSVIEVTIDPDRMRPSDIPSAFGNNSAMRCATGWKPKTKLDDTLEALLNYWRHEVISAEGHHHHHH | soluble
MSLRSEQEMMDIFLDFALNDERIRLVTLEGSRTNRNIPPDNFQDYDISYFVTDVESFKENDQWLEIFGKRIMMQKPEDMELFPPELGNWFSYIILFEDGNKLDLTLIPIREAEDYFANNDGLVKVLLDKDSFINYKVTPNDRQYWIKRPTAREFDDCCNEFWMVSTYVVKGLARNEILFAIDHLNEIVRPNLLRMMAWHIASQKGYSFSMGKNYKFMKRYLSNKEWEELMSTYSVNGYQEMWKSLFTCYALFRKYSKAVSEGLAYKYPDYDEGITKYTEGIYCSVKEGHHHHHH | soluble
MSLRSYDGQLVYNPVEENGVMVGQTVYKMNGSTLANYMKYNYKYDDNKRMIESETLKWNSTKEEWEKDLRINYTYEGKTVTTNYYKWNNKKRAYVLVPEMTVTMDNTNEGHHHHHH | soluble
MSLRTLAVETSCDETALAIYDDQKGVLGNVILSQAVVHSPFGGVVPELSAREHTRNILPIFDRLLKESRINLEEIDFISFTLTPGLILSLVVGVAFAKALAYEYRKPLVPVHHLEGHIYSVFLEKKVEYPFLALIISGGHTDLYLVRDFGRYDFLGGTLDDAVGEAYDKVAKMLGLGYPGGPIIDRLAKEGKKLYPLPKPLMEEGNLNFSFSGLKTAILNLLKKEKNVRKEDIAYSFQETVVEILLEKSLWAMKKTGIKRLVVVGGVSANSRLREVFKKASQEYGFELYIPHPSLSTDNALMIAYAGMERFKRGVVAPLDVNPQPNIPLEEFGRIWTEGHHHHHH | soluble
MSLRTTIADVAQAAGVSVSTVSRALRGLDRVSPETRERIEQEAKRLHFSFSKSASSLASGKTMRVAVLLPNEISSWFNAHAFEGIYEVMSKAGYDIVPYIVWTQDDLDAFFQNLPGNRNVDAVIEASFDFDEAKKQVLGNLTIPVVGMNAPSTHGLDAGVAIDDEASMATIVRFLKSLGHKTLAYIEQPINTTPFVCSDRLRKKGFSEASQACGYADEDIIVMPSLSHIDARSEQDIYSGIVAQLLSAPKQPTAICVSVDAVAAPLLKELRRMGWRVPQDVSLVGFDDDDTATALDLTTMHQDPAEIGRIAARKTLALLNGETLDEPFTVMPTSLVLRGTTERVSEGHHHHHH | soluble
MSLRVTEPEMDQNLRDAIRMVINELTSSSGEVSQWTLREITARYRNLYRIKDPFVLDYYINRYMSGLRSVYPLYINDAIERIMSNGYDRPVIVQYNGKYYETNITLKREDLDSIAIRVSQMMGKKISSGSPIAYGNLQNFRSIVTFGDDVTPFGSSLYLERRHVVADPEAMSSMKDPMVSAYLIMALENMRSIMIIGPDSPMKIAIIYHLIRMIGSEKKIAYIGENGRFDFPRNIVYMMPRERTVFSSEISRTDLINTALRQRPDFIVVNGLTARELPAAVQAITTGHPTLSSMDIDSIENFSSLFSDPSTGLSKDMISLFDVVIEIADNGEYVKAIYEYDRLEGQEVLYNVPFSADRKRKLVFSGYSGIFRRMSKVIGEDSFRQALENRMKELDGGEGHHHHHH | soluble
MSLSAPYRKQIISNAHNKPSLFSKIKTFFTQKDSARVSPRNNVANKQPRNESFNRRISSMPGGYFHSEISPDSTVNRSVVVSAVGEARNDIENKEEEYDETHETNISNAKLANFFSKKGNEPLSEIEIEGVMSLLQKSSKSMITSEGHHHHHH | soluble
MSLSASRAIKERDSRSHIKVLFPSMPYVYVSRLINEGLVRLAENDQGWEYSLATDCPKLSPTLYECTLRQGVRFQDGTPFNADSVIKNFDYFLAQPFNYTDIHRSLKAVEKVSPYKIRLILSQPYGMLFRDLARIFFYSDAYLRQYGWGGAETGANIKSAGSYGLGPYILVEGMITGRKQTPKAILKANPYYWEKGFPKIETITVFTELETQSALESLLEREGELDFMPIPFNKKIETLLSPYTKLIITPSTNNFTIYFNLHKHDSKVFDPKVRQALNCALNQENLLNFTYKKEGRPNTGAYTHEDCPFSLRELHEILRGLKFKVATQDSLLFLWRGIEYQLSRYGVELEFLLTTSEKEIYDLAQKNHQQTQEWDMLIQGTQDWYGRHPWPIFIRYQEGNPWSFVTGDIKMREAINQLFRHEQGTPEFEALCQTIIQRAKEKAYMLFIPTPHAVYGMNKELHFTPHGIGLQPLWKAEVTSEHWSLRGDKPYPESLQKPILPQREGHHHHHH | not soluble
MSLSDDDVDNVIEVARDSWKWTYKDIYSDEFIENWISEKYSKEKLLNEITKSQLNLDLVFLGSFHESKLIGFIELKISSSKAELLRLYLRPEYTHRGVGRILLSEAEELVKKRDVEECILYVHKKNYIATSFYKKNGFQVKDIYGDDLIMIKRYKVEGHHHHHH | not soluble
MSLSEIKRKFDAVSGKYDEQRRKFIPCFDDFYGVSVSIASVDTENPDILDLGAGTGLLSAFLMEKYPEATFTLVDMSEKMLEIAKNRFRGNLKVKYIEADYSKYDFEEKYDMVVSALSIHHLEDEDKKELYKRSYSILKESGIFINADLVHGETAFIENLNKTIWRQYVENSGLTEEEIAAGYERSKLDKDIEMNQQLNWLKEAGFRDVSCIYKYYQFAVMFGRKTEGHHHHHH | soluble
MSLSELIKRLITAMTLCLTALLVHAQEWTKEDSLRLRKLLDSDQELNLNQDAVRQIDFGSAVGTPRMSVEKKWMLPDESLPEALPKPKVVLSLMPYKANTPYNWDPVFQKKIRMDKNTWRGDPHYEMRHQRSYSNWAHNPMAGGVRKSLEEIRASGVRFRQLSERANGMMVNSVVMDSPIPLFGGSGVYINGGTIGGLDLMAVFTKNFWDKKGKERRERTLEVLRTYGDSTTVLINRPIEQIAREGHHHHHH | not soluble
